Measurements: patent US20210246218A1 (LYVGEN BIOPHARMA SUZHOU, published 2021)

Assays:
human B7-H4 protein = target: T1, human B7-H4 protein (human, UniProt Q7Z7D3 29-258, limits assumed); test: ELISA, protein coated at 1 µg/mL
T1 sequence (looked up): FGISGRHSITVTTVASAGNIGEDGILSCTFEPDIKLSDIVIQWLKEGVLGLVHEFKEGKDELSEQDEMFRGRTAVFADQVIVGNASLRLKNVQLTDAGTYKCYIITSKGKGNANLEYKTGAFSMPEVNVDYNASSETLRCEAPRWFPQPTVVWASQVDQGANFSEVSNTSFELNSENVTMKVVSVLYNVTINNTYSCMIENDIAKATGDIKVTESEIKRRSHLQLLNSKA
Method: (§1) The plate was decanted and washed once; assay diluent was added at 200 μL/well. After a 1-hour incubation at room temperature, the plate was washed with PBST one time. […] These samples were added into the plate 50 μL/well. The plate was incubated 1 hour at room temperature and then washed three times with PBST. Goat anti-human IgG-H+L HRP-conjugated at 1:100,000 dilution or goat anti-mouse IgG (H+L) secondary antibody, HRP, at 1:50,000 dilution was added to the plate at 100 μL/well. The plate was incubated 1 hour at room temperature followed by washing with PBST four times. The TMB substrate solution was added 100 μL/well. The color was permitted to develop for 15 minutes and then 100 μL/well 2N H₂SO₄ was added to terminate the reaction. Absorbance at 450 nm and 620 nm was determined by a Tecan F200 Pro reader.

human CD47 protein = human CD47 protein (human, UniProt Q08722 19-139); test: ELISA, protein coated at 1 µg/mL
human CD47 protein, sequence (Q08722 19-139 limits assumed): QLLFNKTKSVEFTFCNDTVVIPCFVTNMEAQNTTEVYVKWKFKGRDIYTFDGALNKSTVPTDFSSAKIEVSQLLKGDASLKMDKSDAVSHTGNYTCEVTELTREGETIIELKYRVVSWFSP
Method: as §1

human CD40 protein = human CD40 protein (human, UniProt P25942 21-193); test: ELISA, protein coated at 1 µg/mL
human CD40 protein, sequence (P25942 21-193 limits assumed): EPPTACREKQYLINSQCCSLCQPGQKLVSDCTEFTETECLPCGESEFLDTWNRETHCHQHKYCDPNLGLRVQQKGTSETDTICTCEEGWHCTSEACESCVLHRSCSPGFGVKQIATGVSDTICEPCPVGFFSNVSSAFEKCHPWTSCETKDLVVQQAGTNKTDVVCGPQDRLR
Method: as §1

human CD20 protein = target: T2, human CD20 protein (human, UniProt P11836 1-297, limits assumed); test: ELISA, protein coated at 1 µg/mL
T2 sequence (looked up): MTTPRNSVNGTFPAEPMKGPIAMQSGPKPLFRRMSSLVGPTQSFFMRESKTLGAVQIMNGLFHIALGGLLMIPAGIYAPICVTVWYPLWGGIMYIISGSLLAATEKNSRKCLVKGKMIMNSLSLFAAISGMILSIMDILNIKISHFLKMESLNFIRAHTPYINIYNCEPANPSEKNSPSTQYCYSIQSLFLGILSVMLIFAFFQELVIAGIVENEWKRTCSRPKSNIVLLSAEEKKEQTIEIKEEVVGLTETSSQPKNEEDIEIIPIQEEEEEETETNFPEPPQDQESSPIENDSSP
Method: as §1

human CD27 protein = human CD27 protein (human, UniProt P26842 21-192, limits assumed); test: ELISA, protein coated at 1 µg/mL
human CD27 protein, sequence (P26842 21-192 limits assumed): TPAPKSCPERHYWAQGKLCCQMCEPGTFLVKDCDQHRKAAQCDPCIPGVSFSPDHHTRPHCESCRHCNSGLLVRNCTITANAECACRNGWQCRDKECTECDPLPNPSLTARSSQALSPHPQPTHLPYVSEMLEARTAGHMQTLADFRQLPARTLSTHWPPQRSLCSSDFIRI
Method: as §1

human GITR protein = target: T3, human GITR protein (human, UniProt Q9Y5U5 26-161); test: ELISA, protein coated at 1 µg/mL
T3 sequence (looked up): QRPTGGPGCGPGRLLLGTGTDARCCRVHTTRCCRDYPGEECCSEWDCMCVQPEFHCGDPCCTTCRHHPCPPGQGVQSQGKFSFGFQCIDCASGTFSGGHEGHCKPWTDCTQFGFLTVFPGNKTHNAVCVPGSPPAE
Method: as §1

human CD19 protein = target: T4, human CD19 protein (human, UniProt P15391 20-291); test: ELISA, protein coated at 1 µg/mL
T4 sequence (looked up): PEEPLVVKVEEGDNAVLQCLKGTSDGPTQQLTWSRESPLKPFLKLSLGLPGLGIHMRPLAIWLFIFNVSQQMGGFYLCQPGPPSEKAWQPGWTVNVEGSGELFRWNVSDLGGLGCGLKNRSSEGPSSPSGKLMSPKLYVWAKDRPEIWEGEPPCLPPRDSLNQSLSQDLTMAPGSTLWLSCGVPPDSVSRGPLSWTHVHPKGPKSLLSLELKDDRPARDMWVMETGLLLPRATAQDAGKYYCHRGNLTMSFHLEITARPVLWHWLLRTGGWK
Method: as §1

Ly050 = target: T5, Ly050; test: ELISA, CD137 protein coated, clone 3712 titrated; full sigmoid, plateau about 1.9
T5 chain: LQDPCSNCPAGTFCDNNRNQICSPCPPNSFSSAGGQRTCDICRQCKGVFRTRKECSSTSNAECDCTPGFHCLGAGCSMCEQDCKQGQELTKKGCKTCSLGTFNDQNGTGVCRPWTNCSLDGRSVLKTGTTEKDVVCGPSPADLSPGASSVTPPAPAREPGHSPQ
Method: For the data shown in FIGS. 16C-D, chimeric CD137 receptor protein samples were diluted in DPBS to 5 μg/mL and then coated onto an ELISA plate (Corning, Catalog number: 9018, high binding) at 50 μL (0.25 μg) per well, and incubated at 4° C. overnight. The plate was decanted and washed once; assay diluent was added at 200 μL/well. After a 1-hour incubation at room temperature, the plate was washed with PBST one time. […] The plate was incubated 1 hour at room temperature and then washed three times with PBST. Goat anti-human IgG-H+L HRP-conjugated at 1:100,000 dilution or goat anti-mouse IgG (H+L) secondary antibody, HRP, 10 at 1:50,000 dilution was added to the plate at 100 μL/well. The plate was incubated 1 hour at room temperature followed by washing with PBST four times. The TMB substrate solution was added 100 μL/well. The color was permitted to develop for 15 minutes and then 100 μL/well 2N H2SO4 was added to terminate the reaction. Absorbance at 450 nm and 620 nm was determined by a Tecan F200 Pro reader.

EC50 (Ly050): 0.0722 µg/mL
B1: Clone 3712-IgG1v (IgG1v/kappa) (antibody)
heavy: QVQLVQSGAEVKKPGASVKVSCKASGYTFAGFEMHWVRQAPGQGLEWMGAIDPKTGGTDYNQKFKDRVTMTRDTSISTAYMELSRLRSDDTAVYYCARDLGYFDVWGQGTLVTVSSASTKGPSVFPLAPSSKSTSGGTAALGCLVKDYFPEPVTVSWNSGALTSGVHTFPAVLQSSGLYSLSSVVTVPSSSLGTQTYICNVNHKPSNTKVDKKVEPKSCDKTHTCPPCPAPELLGPSVFLFPPKPKDTLMISRTPEVTCVVVDVEHEDPEVKFNWYVDGVEVHNAKTKPREEQYNSTYRVVSVLTVLHQDWLNGKEYKCKVSNKALPAPIEKTISKAKGQPREPQVYTLPPSREEMTKNQVSLTCLVKGFYPSDIAVEWESNGQPENNYKTTPPVLDSDGSFFLYSKLTVDKSRWQQGNVFSCSVMHEALHNHYTQKSLSLSPGK
light: DIQMTQSPSSLSASVGDRVTITCRASQDIRSNLNWYQQKPGGAVKLLIYYTSRLHSGVPSRFSGSGSGTDYTLTISSLQPEDFATYFCQQSEKLPRTFGGGTKVEIRRTVAAPSVFIFPPSDEQLKSGTASVVCLLNNFYPREAKVQWKVDNALQSGNSQESVTEQDSKDSTYSLSSTLTLSKADYEKHKVYACEVTHQGLSSPVTKSFNRGEC
notes: copies: 2 + 2
binding result (human B7-H4 protein): no binding (tested: 10 µg/mL and 1 µg/mL)
binding result (human CD47 protein): no binding (tested: 10 µg/mL and 1 µg/mL)
binding result (human CD40 protein): no binding (tested: 10 µg/mL and 1 µg/mL)
binding result (human CD20 protein): no binding (tested: 10 µg/mL and 1 µg/mL)
binding result (human CD27 protein): no binding (tested: 10 µg/mL and 1 µg/mL)
binding result (human GITR protein): no binding (tested: 10 µg/mL and 1 µg/mL)
binding result (human CD19 protein): no binding (tested: 10 µg/mL and 1 µg/mL)
